The target in one experiment is PD-L1 (UniProt Q9NZQ7). Nature of the experiment: FACS binding, CHO-K1 cells expressing PD-L1; flat curve. A general note: Flow cytometry measures light scatter and fluorescence of single cells or particles in a stream.
For the next experiment, the target named is CD47 (UniProt Q08722). The experiment in a line: FACS binding, CHO-K1 cells expressing CD47; flat curve.
Experiment [1] has as its target human PD-L1 on PD-L1 aAPC/CHO-K1 Cells (human) (UniProt Q9NZQ7). The experiment in a line: cell-based or functional assay.

Data on 2 substances can be found in patent US20220289848A1.

As usually defined, the EC50 is the concentration giving half of the maximal effect. Low readings indicate higher potency in that assay, high ones lower potency in that assay.

Chain of PD-L1 (Q9NZQ7 19-290): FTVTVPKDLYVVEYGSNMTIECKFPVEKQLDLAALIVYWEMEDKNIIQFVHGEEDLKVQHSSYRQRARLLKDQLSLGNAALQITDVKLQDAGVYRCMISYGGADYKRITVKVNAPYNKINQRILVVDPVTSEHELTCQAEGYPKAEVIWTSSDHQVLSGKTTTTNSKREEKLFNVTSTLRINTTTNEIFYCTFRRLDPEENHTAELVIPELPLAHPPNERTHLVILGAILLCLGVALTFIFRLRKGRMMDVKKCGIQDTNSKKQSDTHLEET
Chain of human PD-L1 on PD-L1 aAPC/CHO-K1 Cells (human) (Q9NZQ7 19-290): as above

For Human IgG, the EC50 with PD-L1 was determined as 38.3 nM; with CD47, 4.46 pM.
Tecentriq biosimilar (antibody) had a PD-1/PD-L1 blockade bioassay, relative activity (reference) in experiment [1] of 100%.
